Biological target: the molecule itself
Assay: AUC; sedimentation velocity, 60,000 rpm, 20 °C; CD20 at 0.5 mg/ml in 20 mM Tris pH 8.0, 150 mM NaCl, CALX-173-GK; also at 0.044 mg/ml after dilution with CALX-173-GK or DDM (0.05%) buffer, where the distribution shifts in favour of the monomer

B1: CD20 (full length, wild type, C-terminal His6 tag) (natural protein, human, UniProt P11836 1-297, looked up)
chain: MTTPRNSVNGTFPAEPMKGPIAMQSGPKPLFRRMSSLVGPTQSFFMRESKTLGAVQIMNGLFHIALGGLLMIPAGIYAPICVTVWYPLWGGIMYIISGSLLAATEKNSRKCLVKGKMIMNSLSLFAAISGMILSIMDILNIKISHFLKMESLNFIRAHTPYINIYNCEPANPSEKNSPSTQYCYSIQSLFLGILSVMLIFAFFQELVIAGIVENEWKRTCSRPKSNIVLLSAEEKKEQTIEIKEEVVGLTETSSQPKNEEDIEIIPIQEEEEEETETNFPEPPQDQESSPIENDSSP
notes: CD20, human, UniProt P11836, full length and wild type, from plasmid pETR17026; Integral membrane protein held in calixarene detergent micelles (CALX-173-GK, or DDM after dilution); also called purified native CD20; recombinant native CD20; source: gel filtration in CALX-173-GK; not shown: His6, C-terminal, kept
Question: Does B1 bind?
Answer: Result: binds

From paper PMC6757138, “Biochemical and biophysical characterization of purified native CD20 alone and in complex with rituximab and obinutuzumab” (Scientific Reports, 2019)
